Measured values from PMC4072462.

B1: fabAec B+D (dsDNA)
DNA 1: TTTATTCCGAACTGATCGGACTTGTTCAGCGTACACGTGTTAGCTATCCTGCGTGC
DNA 2: GCACGCAGGATAGCTAACACGTGTACGCTGAACAAGTCCGATCAGTTCGGAATAAA
B2: fabBec B+D (dsDNA)
DNA 1: TCTATTAAATGGCTGATCGGACTTGTTCGGCGTACAAGTGTACGCTATTGTGCATTC
DNA 2: GAATGCACAATAGCGTACACTTGTACGCCGAACAAGTCCGATCAGCCATTTAATAGA

Target: FabR_vc (N-terminal His6) (Vibrio cholerae, UniProt Q9KVJ2 1-213)
Experiment: EMSA

| Binder | binding result |
| --- | --- |
| B1 | binds |
| B2 | binds |
